Assays:
UBE2A [1] = target: UBE2A (UniProt P49459 1-152); assay: ITC; UBR4 construct in the cell (74 μM), UBE2A in the syringe at tenfold higher concentration; 25 °C; 0.4 µl then 13 injections of 3 µl; UBE2A into buffer subtracted; single site binding model; details: both partners purified
UBE2A [2] = target: T1, UBE2A (UniProt P49459 1-152); assay: as above; details: both partners purified
T1 construct: also called UBE2A WT; source: E. coli BL21(DE3), purified (glutathione Sepharose 4B or Ni-NTA, SEC); not shown: GST (from the vector pGEX6P-3), N-terminal, cleaved

B1: UBR4_(4828–5183) (domain or fragment)
chain: EELIEEPGLTCCICREGYKFQPTKVLGIYTFTKRVALEEMENKPRKQQGYSTVSHFNIVHYDCHLAAVRLARGREEWESAALQNANTKCNGLLPVWGPHVPESAFATCLARHNTYLQECTGQREPTYQLNIHDIKLLFLRFAMEQSFSADTGGGGRESNIHLIPYIIHTVLYVLNTTRATSREEKNLQGFLEQPKEKWVESAFEVDGPYYFTVLALHILPPEQWRATRVEILRRLLVTSQARAVAPGGATRLTDKAVKDYSAYRSSLLFWALVDLIYNMFKKVPTSNTEGGWSCSLAEYIRHNDMPIYEAADKALKTFQEEFMPVETFSEFLDVAGLLSEITDPESFLKDLLNSVP
modifications: one Zn2+ bound (Cys4838, Cys4841, His4887, Cys4890). The C-terminal limit 5183 is taken from the Fig. 7 title and legend and the structure section; '4828-5130' in the ITC text is treated as a …
UBE2A [1]
  Kd: 89.8 µM

B2: UBR4_(xtal) (UBR4 residues 4,730–5,183) (domain or fragment)
chain: AIQHPGTQVLIGTDSIPNLHKLEQVSSDEGIGTLAENLLEALREHPDVNKKIDAARRETRAEKKRMAMAMRQKALGTLGMTTNEKGQVVTKTALLKQMEELIEEPGLTCCICREGYKFQPTKVLGIYTFTKRVALEEMENKPRKQQGYSTVSHFNIVHYDCHLAAVRLARGREEWESAALQNANTKCNGLLPVWGPHVPESAFATCLARHNTYLQECTGQREPTYQLNIHDIKLLFLRFAMEQSFSADTGGGGRESNIHLIPYIIHTVLYVLNTTRATSREEKNLQGFLEQPKEKWVESAFEVDGPYYFTVLALHILPPEQWRATRVEILRRLLVTSQARAVAPGGATRLTDKAVKDYSAYRSSLLFWALVDLIYNMFKKVPTSNTEGGWSCSLAEYIRHNDMPIYEAADKALKTFQEEFMPVETFSEFLDVAGLLSEITDPESFLKDLLNSVP
notes: UBR4, human, residues 4,730–5,183 (runs to the native C-terminus); holds the unresolved N-terminal region, the hemiRING zinc finger and the UZI subdomain; The GST tag is said to be cleaved for crystallization and autoubiquitination assays; Cloning strategy is in Supplementary Data 1; also called UBR4_(4730–5183); hemiRING-UZI module construct; source: E. coli BL21(DE3), purified (glutathione …)
UBE2A [2]
  Kd: 1.19 µM

B3: UBR4_(xtal) Ser4930Arg (domain or fragment)
chain: AIQHPGTQVLIGTDSIPNLHKLEQVSSDEGIGTLAENLLEALREHPDVNKKIDAARRETRAEKKRMAMAMRQKALGTLGMTTNEKGQVVTKTALLKQMEELIEEPGLTCCICREGYKFQPTKVLGIYTFTKRVALEEMENKPRKQQGYSTVSHFNIVHYDCHLAAVRLARGREEWESAALQNANTKCNGLLPVWGPHVPERAFATCLARHNTYLQECTGQREPTYQLNIHDIKLLFLRFAMEQSFSADTGGGGRESNIHLIPYIIHTVLYVLNTTRATSREEKNLQGFLEQPKEKWVESAFEVDGPYYFTVLALHILPPEQWRATRVEILRRLLVTSQARAVAPGGATRLTDKAVKDYSAYRSSLLFWALVDLIYNMFKKVPTSNTEGGWSCSLAEYIRHNDMPIYEAADKALKTFQEEFMPVETFSEFLDVAGLLSEITDPESFLKDLLNSVP
notes: also called UBR4 Ser4930Arg; S4930R; source: E. coli BL21(DE3), purified (glutathione sepharose 4B, SEC)
UBE2A [2]
  binding result: binds

— paper PMC10873205 (Nature Structural & Molecular Biology, 2024)
